The text below walks through data of article PMC10156175 (Cell, 2023).

The target in one experiment is CUL1 (human, UniProt Q13616). Description: cryo-EM structure.
Experiment [1] has as its target SCF^SKP2 (CUL1-RBX1-SKP1-SKP2), pre-formed (human, UniProt Q13616;P62877;P63208;Q13309). The experiment is described as follows: native gel or EMSA.
The target in experiment [2] is SCF^FBXW7 (CUL1-RBX1-SKP1-FBXW7), pre-formed (human, UniProt Q13616;P62877;P63208;Q969H0, for the native gels: labelled with fluorescein (site not stated)). The experiment is described as follows: native gel or EMSA.
Sequence of SCF^FBXW7 (CUL1-RBX1-SKP1-FBXW7), pre-formed (Q13616 whole entry, chain 1 of 3): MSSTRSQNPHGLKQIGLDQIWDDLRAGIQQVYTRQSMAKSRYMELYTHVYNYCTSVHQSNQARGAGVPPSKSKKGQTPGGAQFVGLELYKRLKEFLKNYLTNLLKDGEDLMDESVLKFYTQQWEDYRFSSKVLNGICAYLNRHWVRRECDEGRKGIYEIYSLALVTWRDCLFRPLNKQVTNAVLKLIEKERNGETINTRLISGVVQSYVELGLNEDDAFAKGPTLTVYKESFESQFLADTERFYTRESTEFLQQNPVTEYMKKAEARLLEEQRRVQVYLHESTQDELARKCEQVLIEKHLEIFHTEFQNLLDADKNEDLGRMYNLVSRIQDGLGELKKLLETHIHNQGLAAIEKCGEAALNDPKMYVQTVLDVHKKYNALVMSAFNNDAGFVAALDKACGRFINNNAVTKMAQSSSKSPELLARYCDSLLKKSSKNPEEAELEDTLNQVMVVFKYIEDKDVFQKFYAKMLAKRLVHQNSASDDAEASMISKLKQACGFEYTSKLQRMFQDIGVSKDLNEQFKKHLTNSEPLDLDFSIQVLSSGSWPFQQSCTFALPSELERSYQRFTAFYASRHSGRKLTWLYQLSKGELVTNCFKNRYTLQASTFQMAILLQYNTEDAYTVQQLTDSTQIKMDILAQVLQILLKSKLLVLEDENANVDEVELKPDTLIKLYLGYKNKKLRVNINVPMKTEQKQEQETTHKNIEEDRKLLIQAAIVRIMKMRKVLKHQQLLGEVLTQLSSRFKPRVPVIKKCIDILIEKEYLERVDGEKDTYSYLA
Sequence of SCF^FBXW7 (CUL1-RBX1-SKP1-FBXW7), pre-formed (P62877 5-108, chain 2 of 3): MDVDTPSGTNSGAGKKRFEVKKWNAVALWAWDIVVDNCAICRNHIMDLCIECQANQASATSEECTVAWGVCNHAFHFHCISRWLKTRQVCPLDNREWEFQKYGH
Sequence of SCF^FBXW7 (CUL1-RBX1-SKP1-FBXW7), pre-formed (P63208 whole entry, chain 3 of 3): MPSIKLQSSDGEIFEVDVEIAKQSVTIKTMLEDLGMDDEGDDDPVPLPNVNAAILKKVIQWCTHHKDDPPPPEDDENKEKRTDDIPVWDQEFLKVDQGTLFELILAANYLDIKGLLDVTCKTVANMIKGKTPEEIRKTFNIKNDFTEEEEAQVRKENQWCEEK

Sequence of SCF^SKP2 (CUL1-RBX1-SKP1-SKP2), pre-formed (Q13616 whole entry, chain 1 of 4): as the sequence (Q13616 whole entry, chain 1 of 3) above
Sequence of SCF^SKP2 (CUL1-RBX1-SKP1-SKP2), pre-formed (P62877 5-108, chain 2 of 4): as the sequence (P62877 5-108, chain 2 of 3) above
Sequence of SCF^SKP2 (CUL1-RBX1-SKP1-SKP2), pre-formed (P63208 whole entry, chain 3 of 4): as the sequence (P63208 whole entry, chain 3 of 3) above
Sequence of SCF^SKP2 (CUL1-RBX1-SKP1-SKP2), pre-formed (Q13309 whole entry, chain 4 of 4): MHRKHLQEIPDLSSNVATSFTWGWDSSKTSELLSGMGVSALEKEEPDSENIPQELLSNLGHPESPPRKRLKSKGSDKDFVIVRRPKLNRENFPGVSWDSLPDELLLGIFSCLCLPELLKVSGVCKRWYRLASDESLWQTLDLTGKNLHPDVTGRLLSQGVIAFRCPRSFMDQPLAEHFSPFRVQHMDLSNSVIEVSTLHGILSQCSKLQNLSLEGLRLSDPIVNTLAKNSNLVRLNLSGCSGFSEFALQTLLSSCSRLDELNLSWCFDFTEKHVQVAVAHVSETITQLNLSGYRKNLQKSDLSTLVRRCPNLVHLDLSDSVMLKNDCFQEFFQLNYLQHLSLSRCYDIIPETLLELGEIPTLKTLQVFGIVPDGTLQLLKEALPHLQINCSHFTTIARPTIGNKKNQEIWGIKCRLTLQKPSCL
Sequence of CUL1 (Q13616 whole entry): as the sequence (Q13616 whole entry, chain 1 of 3) above

B1: FBXW7 (263-C) (domain or fragment)
chain: TQVKHMMQVIEPQFQRDFISLLPKELALYVLSFLEPKDLLQAAQTCRYWRILAEDNLLWREKCKEEGIDEPLHIKRRKVIKPGFIHSPWKSAYIRQHRIDTNWRRGELKSPKVLKGHDDHVITCLQFCGNRIVSGSDDNTLKVWSAVTGKCLRTLVGHTGGVWSSQMRDNIIISGSTDRTLKVWNAETGECIHTLYGHTSTVRCMHLHEKRVVSGSRDATLRVWDIETGQCLHVLMGHVAAVRCVQYDGRRVVSGAYDFMVKVWDPETETCLHTLQGHTNRVYSLQFDGIHVVSGSLDTSIRVWDVETGNCIHTLTGHQSLTSGMELKDNILVSGNADSTVKIWDIKTGQCLQTLQGPNKHQSAVTCLQFNKNFVITSSDDGTVKLWDLKTGEFIRNLVTLESGGSGGVVWRIRASNTKLVCAVGSRNGTEETKLLVLDFDVDMK
In the case of B1, the binding result with CUL1 is recorded as “binds”.

B2: CAND1 (Cullin-associated NEDD8-dissociated protein 1) (natural protein)
chain: MASASYHISNLLEKMTSSDKDFRFMATNDLMTELQKDSIKLDDDSERKVVKMILKLLEDKNGEVQNLAVKCLGPLVSKVKEYQVETIVDTLCTNMLSDKEQLRDISSIGLKTVIGELPPASSGSALAANVCKKITGRLTSAIAKQEDVSVQLEALDIMADMLSRQGGLLVNFHPSILTCLLPQLTSPRLAVRKRTIIALGHLVMSCGNIVFVDLIEHLLSELSKNDSMSTTRTYIQCIAAISRQAGHRIGEYLEKIIPLVVKFCNVDDDELREYCIQAFESFVRRCPKEVYPHVSTIINICLKYLTYDPNYNYDDEDEDENAMDADGGDDDDQGSDDEYSDDDDMSWKVRRAAAKCLDAVVSTRHEMLPEFYKTVSPALISRFKEREENVKADVFHAYLSLLKQTRPVQSWLCDPDAMEQGETPLTMLQSQVPNIVKALHKQMKEKSVKTRQCCFNMLTELVNVLPGALTQHIPVLVPGIIFSLNDKSSSSNLKIDALSCLYVILCNHSPQVFHPHVQALVPPVVACVGDPFYKITSEALLVTQQLVKVIRPLDQPSSFDATPYIKDLFTCTIKRLKAADIDQEVKERAISCMGQIICNLGDNLGSDLPNTLQIFLERLKNEITRLTTVKALTLIAGSPLKIDLRPVLGEGVPILASFLRKNQRALKLGTLSALDILIKNYSDSLTAAMIDAVLDELPPLISESDMHVSQMAISFLTTLAKVYPSSLSKISGSILNELIGLVRSPLLQGGALSAMLDFFQALVVTGTNNLGYMDLLRMLTGPVYSQSTALTHKQSYYSIAKCVAALTRACPKEGPAVVGQFIQDVKNSRSTDSIRLLALLSLGEVGHHIDLSGQLELKSVILEAFSSPSEEVKSAASYALGSISVGNLPEYLPFVLQEITSQPKRQYLLLHSLKEIISSASVVGLKPYVENIWALLLKHCECAEEGTRNVVAECLGKLTLIDPETLLPRLKGYLISGSSYARSSVVTAVKFTISDHPQPIDPLLKNCIGDFLKTLEDPDLNVRRVALVTFNSAAHNKPSLIRDLLDTVLPHLYNETKVRKELIREVEMGPFKHTVDDGLDIRKAAFECMYTLLDSCLDRLDIFEFLNHVEDGLKDHYDIKMLTFLMLVRLSTLCPSAVLQRLDRLVEPLRATCTTKVKANSVKQEFEKQDELKRSAMRAVAALLTIPEAEKSPLMSEFQSQISSNPELAAIFESIQKDSSSTNLESMDTS
modifications: for the native gels only: TAMRA-(PEG)5-LPETGG peptide joined to the amino-terminus by sortase
For B2, the binding result in experiment [1] and in experiment [2] was “binds” throughout.
